Source: patent US20100150950A1, “HUMAN ANTIBODIES THAT BIND CD70 AND USES THEREOF” (Medarex, Inc., priority 2006, published 2010)
Residue numbers refer to the chain shown, from its start. Blank lines part the entries; values can stand above or below the molecule they belong to.

Tests used:
CD70 on Raji cells = molecular target: T1, CD70 on Raji cells (Homo sapiens, UniProt P32970); test: Competition FACS assay with FITC-conjugated 69A7 on Raji cells; type: binding; conditions: naked antibody 10 μg/ml, then FITC-conjugated 69A7 10 μg/ml
T1 construct: endogenous in cells; host or cells: Daudi (ATCC CCL-213), HuT 78 (TIB-161), Raji (CCL-86), Granta 519 (DSMZ 342)
T1 sequence (P32970 1-193): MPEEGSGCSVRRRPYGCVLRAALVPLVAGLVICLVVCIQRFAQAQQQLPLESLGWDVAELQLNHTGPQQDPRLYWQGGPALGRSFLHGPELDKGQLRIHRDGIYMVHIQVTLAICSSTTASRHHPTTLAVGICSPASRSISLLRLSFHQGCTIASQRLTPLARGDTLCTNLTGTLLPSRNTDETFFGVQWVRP
Protocol: A competition FACS assay was carried out to elucidate the binding specificity of 69A7 against 2H5. Raji cells were incubated with either naked 69A7, 2H5, an isotype control antibody or no antibody at a concentration of 10 μg/ml. After wash, the cells were incubated with FITC-conjugated 69A7 at a concentration of 10 μg/ml. The cells were washed and binding was detected with a FITC-labeled anti-human IgG Ab. Flow cytometric analyses were performed using a FACSCalibur flow cytometry (Becton Dickinson, San Jose, Calif.).

SU-DHL-6 cells = test: ADCC fluorescence cytotoxicity assay, SU-DHL-6; type: cell-based, human; conditions: target to effector ratio 1:50
Protocol: In this example, a defucosylated and non-defucosylated anti-CD70 monoclonal antibody was tested for the ability to kill CD70+cells in the presence of effector cells via antibody dependent cellular cytotoxicity (ADCC) in a fluorescence cytotoxicity assay
(§1) Human Anti-CD70 monoclonal antibody 2H5 was defucosylated as described above. Human effector cells were prepared from whole blood as follows. Human peripheral blood mononuclear cells were purified from heparinized whole blood by standard Ficoll-paque separation. The cells were resuspended in RPMI1640 media containing 10% FBS (culture media) and 200 U/ml of human IL-2 and incubated overnight at 37° C. The following day, the cells were collected and washed once in culture media and resuspended at 2×10^7 cells/ml. […]
The CD70+ cell lines ARH-77 (human B lymphoblast leukemia; ATCC Accession No. CRL-1621), MEC-1 (human chronic B cell leukemia; DSMZ Accession No. ACC 497), SU-DHL-6 (human B cell lymphoma, DSMZ Accession No. Acc572), IM-9 (human B lymphoblast; ATCC Accession No. CCL-159) and HuT 78 (human cutaneous lymphocyte lymphoma; ATCC Accession No. TIB-161), were tested for antibody specific ADCC to the defucosylated and non-defucosylated human anti-CD70 monoclonal antibody 2H5 using the Delfia fluorescence emission analysis as follows. […]

ARH-77 cells = test: ADCC fluorescence cytotoxicity assay, ARH-77; type: cell-based, human; conditions: target to effector ratio 1:50
Protocol: In this example, anti-CD70 monoclonal antibodies were tested for the ability to kill CD70+ cell lines in the presence of effector cells via antibody dependent cellular cytotoxicity (ADCC) in a fluorescence cytotoxicity assay.
as §1, with “Human” for “Human Anti-CD70 monoclonal antibody 2H5 was defucosylated as described above. Human”, “FBS” for “FBS (culture media)”, “four times” for “once”
The CD70+ cell lines ARH-77 (human B lymphoblast leukemia; ATCC Accession No. CRL-1621), HuT 78 (human cutaneous lymphocyte lymphoma; ATCC Accession No. TIB-161), Raji (human B lymphocyte Burkitt's lymphoma; ATCC Accession No. CCL-86) and a negative control cell line L540 (human Hodgkin's lymphoma; DSMZ Deposit No. ACC 72) were tested for antibody specific ADCC to the human anti-CD70 monoclonal antibodies using the Delfia fluorescence emission analysis as follows. […]
In this example, a defucosylated and non-defucosylated anti-CD70 monoclonal antibody was tested for the ability to kill CD70+cells in the presence of effector cells via antibody dependent cellular cytotoxicity (ADCC) in a fluorescence cytotoxicity assay […]

blocking of FITC-labeled 69A7 binding (CD70 on Raji cells): blocked binding
B1: anti-CD70 human monoclonal antibody 69A7 (antibody, V domains shown)
VH: QVQLQESGPGLVKPSETLSLTCTVSGGSVSSDYYYWSWIRQPPGKGLEWLGYIYYSGSTNYNPSLKSRVTISVDTSKNQFSLKLRSVTTADTAVYYCARGDGDYGGNCFDYWGQGTLVTVSS
VL: EIVLTQSPATLSLSPGERATLSCRASQSVSSYLAWYQQKPGQAPRLLIFDASNRATGIPARFSGSGSGTDFTLTISSLEPEDFAVYYCQQRSNWPLTFGGGTKVEIK
notes: Human IgG from hybridoma; also called HuMAb 69A7; FITC-conjugated 69A7

B2: 2H5 NF: 2H5 HuMAb lacking fucosyl residues, expressed in CHO cell line Ms704-PF (antibody, V domains shown)
VH: QVQLVESGGGVVQPGRSLRLSCAASGFTFSSYIMHWVRQAPGKGLEWVAVISYDGRNKYYADSVKGRFTISRDNSKNTLYLQMNSLRAEDTAVYYCARDTDGYDFDYWGQGTLVTVSS
VL: B1 VL with F49Y, S92T
ADCC, % specific lysis of SU-DHL-6 (SU-DHL-6 cells): increased percentage of specific lysis
ADCC, % lysis of ARH-77 (ARH-77 cells): increased percentage of specific lysis
